Laboratory results as given in article doi:10.1101/2023.02.25.530030.

These substances were tested against human Mdm2 (1-125) (human) (assay: fluorescence polarisation).
Sequence of human Mdm2 (1-125) (human) (Q00987 1-125): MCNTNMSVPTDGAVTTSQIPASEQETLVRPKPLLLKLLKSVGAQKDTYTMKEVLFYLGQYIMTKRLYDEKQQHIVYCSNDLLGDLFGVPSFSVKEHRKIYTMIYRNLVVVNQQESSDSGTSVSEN

Substance	Kd
azide-ATSP-7041 (MP-081) with Cba10 substituted with Ala (peptide)	115 nM
azide-ATSP-7041 (MP-081) (peptide)	5 nM
azide-ATSP-7041 (L1N, E5N, A8N, S12N, A13N, A14N) (peptide)	15 nM
azide-ATSP-7041 (MP-081) E5P (peptide)	7800 nM
azide-ATSP-7041 (MP-081) with Cba10 substituted with Leu (peptide)	56 nM
MP-444: Ac-K(N3)-TF(X)EYWAQ(Cba)(X)EAFAAF-NH2 (peptide)	1.5 nM
MP-793 (all-D di-alkyne stapled analog of ^dPMI-δ(5-12 staple)) (peptide)	< 1 nM
azide-ATSP-7041 (L1D, E5D, A8D) (peptide)	5 nM
